Laboratory results taken from article PMC5750218, “Protein-inspired antibiotics active against vancomycin- and daptomycin-resistant bacteria” (Nature Communications, 2018).
≈ marks a conversion by molar mass, not a printed value. Read-outs that look alike come from different tables or passages of the source.

Columns and labels:
S. aureus ATCC 43300 = test: Membrane permeability assay (propidium iodide); assay type: cell-based, Staphylococcus aureus
Description: To evaluate the ability of the compounds to disrupt the cytoplasmic membrane integrity, the membrane impermeable fluorescent DNA intercalating dye propidium iodide (PI) was used. Early exponential phase cells were pelleted and washed twice in 10 mM HEPES buffer (pH 7.4) containing 50 µg mL^−1 of CaCl2 and 5 mM glucose, and then re-suspended in the same buffer (4 × 10^8 CFU mL^−1). Cell suspension was added to a 384-well black walled polystyrene plate (Corning, CLS3573) containing compounds, giving a final concentration of 16 µg mL^−1. After 1 h incubation at 37 °C, 5 µg mL^−1 of PI was added and fluorescence was monitored for 90 min using a Tecan Infinite® m1000 Pro Multi-mode reader (excitation/emission 535/620 nm). Data were corrected by subtraction of fluorescence signal arising from untreated cells in the presence of PI. […] Each sample was tested in quadruplicate and independent assays were performed twice showing similar results. Data was analysed and presented using Prism software.

[1] = test system: S. aureus ATCC 43300 MRSA; test: microbe, parasite or virus in culture; assay type: cell-based, Staphylococcus aureus
Description: (§1) The compounds, along with standard antibiotics were serially diluted twofold across the wells of 96-well non-binding surface (NBS) polystyrene plates (Corning 3641). […] Standards ranged from 64 to 0.03 µg mL^−1 and compounds from 8 to 0.003 µg mL^−1 with final assay volumes of 100 µL per well. Gram-positive bacteria were cultured in Mueller Hinton broth (MHB) (Bactolaboratories, Cat. no. 211443) at 37 °C overnight. A sample of each culture was then diluted 40-fold in fresh MHB and incubated at 37 °C for 2–3 h. The resultant mid-log phase cultures were added to the compound-containing 96-well plates to give a final cell density of 5 × 10^5 colony forming unit (CFU) mL^−1. All the plates were covered and incubated at 37 °C for 24 h. MICs were the lowest concentration showing no visible growth.

[2] = test system: S. pneumoniae ATCC 700677 MDR; test: microbe, parasite or virus in culture; assay type: cell-based, Streptococcus pneumoniae
Description: as §1

S. pneumoniae ATCC 33400 = test: microbe, parasite or virus in culture; assay type: cell-based, Streptococcus pneumoniae
Description: as §1

[3] = In vivo pharmacokinetics in mice; conditions: mouse; for level at […]: 0.250 h; for level at 0.5 h: 0.500 h; for MRT inf: read-out: MRT0-inf; for MRT last: read-out: MRT0-last
Description: Performed by WuXi AppTec (Shanghai) Co., Ltd. Seven to 9-week-old male CD1 mice (SLAC Laboratory Animal Co. Ltd., Shanghai, China) weighing 25–35 g were acclimated for approximate 3 days before being used in the study. Animals are group housed during acclimation and in-life study in compliance with the National Research Council 'Guide for the Care and Use of Laboratory Animals.' The animal room environment is controlled (target conditions: temperature 18 to 26 °C, relative humidity 30–70%, 12 h artificial light and 12 h dark) with temperature and relative humidity monitored daily. Animals were deprived of food for approximately 16 h before formulation administration then allowed access to Certified Rodent Diet (Catalogue # M-01F, Shanghai SLAC Laboratory Animal Co. Ltd.) ad libitum 4 h post dosing. Water was autoclaved before being provided to the animals ad libitum. Formulations of compounds were prepared on the morning of the dosing day. The formulation for the IV group was filtered with filter of 0.22 μm before being dosed to animals. After dose formulation preparation, duplicate 50 μL aliquots were removed from each dose formulation for use in dose validation. For each compound studied, three mice were dosed intravenously (IV) administered to each animal via tail vein per facility SOPs using test article formulated in deionised water at 1 mg mL^−1 with a dose volume of 2 mg mL^−1, providing a dose of 2 mg mL^−1 (based on free base concentration). An additional three mice were dosed subcutaneously (SC) administered to each animal via subcutaneous bolus on each animals’ back per facility SOPs using test article formulated in deionised water at 2 mg mL^−1 with a dose volume of 5 mg mL^−1, providing a dose of 10 mg mL^−1. All animals were killed at the last study time point (100% CO2 was introduced into the animal box).
Plasma samples were collected as the following target times after each dose administration: IV Sampling Time points (hours post dosing): 0, 0.083, 0.25, 0.5, 1, 2, 4, 8 and 24. SC Sampling Time points (hours post dosing): 0, 0.25, 0.5, 1, 2, 4, 8 and 24. Approximately 30 μL blood was obtained via submandibular or saphenous vein for the first several time points. For the last time point, samples were collected via cardiac puncture while the mouse was under anaesthesia. All blood samples were transferred into pre-chilled plastic microcentrifuge tubes containing 2 μL of ethylenediaminetetraacetic acid dipotassium salt (K2-EDTA) (0.5 M) as anticoagulant and placed on wet ice until centrifugation. Harvested blood samples were centrifuged within 30 min of collection at 7000 rpm (8546 × g) 4 °C for about 10 min. After centrifugation, plasma was transferred into another pre-labelled and pre-chilled polypropylene microcentrifuge tubes, then quick-frozen over dry ice and stored at −70 ± 10 °C until LC/MSMS analysis.
LC-MS/MS methods for the quantitative determination of the test article in mouse plasma were developed with an internal standard. Benchtop stability of the compound in mouse plasma was determined at mid QC concentrations in triplicate at 0, 2 h at room temperature. The stability was determined using mean peak area ratio of T2/T0 sample. If the mean peak area ratio is within 80%~120%, the test article in the plasma is considered stable for 2 h at room temperature. […] A set of QC samples consists of three concentration levels (low, middle and high). The sample analysis was performed concurrently with a set of calibration standards and two sets of QC samples using the LC-MS/MS method.
Plasma concentration vs. time data from individual animals was analysed by WinNonLin non-compartmental model (Phoenix WinNonlin 6.2.1, Pharsight, Mountain View, CA). Pharmacokinetic parameter C 0, T ½, CL, Vdss, C max, T max, AUC0-last, AUC0-inf, %F, MRT0-last, MRT0-inf and graphs of plasma concentration vs. time profile were derived.

Haemolysis assay = assay type: cell-based; conditions: human, whole blood
Description: Haemolytic activity was measured as previously described with slight modifications, [45]. Fresh human venal blood was collected from healthy volunteers and pretreated with the anticoagulant sodium citrate. Serial twofold dilutions of each antibiotic, dissolved in 0.9% NaCl solution, were added to fresh human whole blood (50% final, vol:vol) to the final volume of 80 μL and incubated at 37 °C for 3 h on a horizontal shaker at 200 rpm. For negative and positive controls, human whole blood in 0.9% NaCl solution (A blank) and in sdH2O (A water) were used, respectively. After incubation, both test and A blank were mixed with 1 mL 0.9% NaCl solution, or sdH2O for the complete […] A water. After centrifugation of samples at 2500 rpm (700 × g) for 5 min, the release of haemoglobin was monitored by measuring the absorbance (A sample) of the supernatant at 540 nm using BMG Labtech PolarStar Omega multimode reader. The percentage of haemolysis was calculated according to the equation: %haemolysis=Asample-Ablank∕Awater-Ablank×100

[4] = test system: Bacillus subtilis ATCC 6633; test: microbe, parasite or virus in culture; assay type: cell-based; conditions: ATCC 6633, 48 h
in vitro = conditions: human, 50% human plasma (pooled, sodium heparin) in PBS, pH 7.4
Description: (§2) Briefly, test compounds (20 μM) were prepared from a 0.2 mM H2O stock solution (40 μL in 400 μL assay volume) except eucatropine, which was 300 μg mL^−1 in 100% DMSO (10 μL in 400 μL assay volume equivalent to 23 μM). The precipitating solution was prepared by adding 5 μL of 10 mM carbutamide in DMSO to 100 mL acetonitrile (final concentration: 135.5 ng mL^−1 or 0.5 μM carbutamide). The human plasma sample (pooled normal human plasma sodium heparin anticoagulant, 2 µL, Cat No.: [sequence], BioReclamation) and phosphate-buffer saline (PBS, pH 7.4 isotonic) were pre-heated at 37 °C for 30 min. 40 μL of test compounds (0.2 mM) were added to protein-low binding Eppendorf tubes, 160 μL of buffer was added, and the mixture was vortexed. For eucatropine, 10 μL of eucatropine (300 μg mL^−1) was added to a protein-low binding Eppendorf tube, 190 μL of buffer was added, and the mixture was vortexed. In each case, 200 μL of plasma was added and the resultant mixture vortexed. For the initial time point (reaction time t = 0 h), 50 μL of sample was immediately transferred into a protein-low binding Eppendorf tube and quenched with 150 μL of the ice-cold precipitating solution, followed by vortexing and subsequent storage at 4 °C. For the remaining time points, the plasma solution was incubated and shaken (150 rpm) at 37 °C. 50 μL aliquots were collected at time points of 0, 1, 3, 6 and 24 h and quenched with 150 μL the ice-cold precipitating solution. All samples were placed in a 4 °C fridge for 30 min then centrifuged at 14,000 × g for 8 min at 4 °C. The supernatant (100 μL) was transferred to a glass vial insert and stored at 4 °C until LC-MS/MS analysis. The percentage of test compounds remaining at the individual time points relative to sample at time point 0 h were reported.

[5] = 37 °C, 20 µM
Description: as §2

[6] = male, CD1, plasma, 2 mg/kg IV, read-out: Plasma concentration, Mean IV
[7] = male, CD1, plasma, 10 mg/kg SC, read-out: Plasma concentration, Mean SC

**Q.** What does the source list for `CN[C@H]1C(=O)N[C@@H]2Cc3ccc(cc3)Oc3cc4cc(c3O[C@@H]3O[C@H](C(=O)O)[C@@H](O)[C@H](O)[C@H]3NC(=O)CCCCCCCCC(C)C)Oc3ccc(cc3Cl)[C@@H](O)[C@@H]3NC(=O)[C@H](NC(=O)[C@@H]4NC(=O)[C@@H](NC2=O)c2cc(cc(O)c2Cl)Oc2cc1ccc2O)c1ccc(O)c(c1)-c1c(O[C@H]2O[C@H](CO)[C@@H](O)[C@H](O)[C@@H]2O)cc(O)cc1[C@@H](C(=O)NCCCN(C)C)NC3=O` [Compound 3, Dalbavancin]?
**A.** Membrane permeabilisation (propidium iodide fluorescence) (S. aureus ATCC 43300): little to no effect; MIC S. aureus ATCC 43300 MRSA ([1]; 1% Survanta): 0.06 µg/mL (≈ 0.033 µM); MIC S. aureus ATCC 43300 MRSA ([1]; 5% Survanta): 0.125 µg/mL (≈ 0.0688 µM); MIC S. pneumoniae ATCC 700677 MDR ([2]; 1% Survanta): 0.06 µg/mL (≈ 0.033 µM); MIC S. pneumoniae ATCC 700677 MDR ([2]; no added Survanta): 0.06 µg/mL (≈ 0.033 µM); MIC S. pneumoniae ATCC 33400 (S. pneumoniae ATCC 33400; 1% Survanta): 0.06 µg/mL (≈ 0.033 µM); MIC S. pneumoniae ATCC 33400 (S. pneumoniae ATCC 33400; 5% Survanta): 0.125 µg/mL (≈ 0.0688 µM); MIC S. pneumoniae ATCC 33400 (S. pneumoniae ATCC 33400; no added Survanta): 0.06 µg/mL (≈ 0.033 µM)

**Q.** What does the source list for `CCCCCCCCCCC(=O)N[C@@H](CCCCN)C(=O)N[C@@H](CCCCN)C(=O)N[C@@H](CCCCN)C(=O)N[C@@H](CCCCNC(=O)[C@H]1NC(=O)[C@H]2NC(=O)[C@H](NC(=O)[C@@H]3NC(=O)[C@H](CC(N)=O)NC(=O)[C@H](NC(=O)[C@@H](CC(C)C)NC)[C@H](O)c4ccc(c(Cl)c4)Oc4cc3cc(c4O[C@@H]3O[C@H](CO)[C@@H](O)[C@H](O)[C@H]3O[C@H]3C[C@](C)(N)[C@H](O)[C@H](C)O3)Oc3ccc(cc3Cl)[C@H]2O)c2ccc(O)c(c2)-c2c(O)cc(O)cc21)C(=O)O` [Compound 18, nC10CO-KKK-K(Vancomycin)-OH]?
**A.** level at 5 min ([3]; male, CD1, plasma, 2 mg/kg IV, 5 min, n=3, read-out: Plasma concentration, Mean IV): 5440 ng/mL; level at […] [3, 6]: 3570 ng/mL; level at 0.5 h [3, 6]: 2250 ng/mL; level at 1 h [3, 6]: 1500 ng/mL; level at 2 h [3, 6]: 447 ng/mL; level at 4 h [3, 6]: 69.6 ng/mL; level at […] ([3]; male, CD1, plasma, 10 mg/kg SC, n=3, read-out: Plasma concentration, Mean SC): 2360 ng/mL; level at 0.5 h [3, 7]: 4450 ng/mL; level at 1 h [3, 7]: 6220 ng/mL; level at 2 h [3, 7]: 4520 ng/mL; level at 4 h [3, 7]: 1260 ng/mL; level at 8 h ([3]; male, CD1, plasma, 10 mg/kg SC, 8.00 h, read-out: Plasma concentration, Mean SC): 113 ng/mL; AUC0-inf/AUC0-last ([3]; IV 2 mg kg-1): 101%; AUC0-inf/AUC0-last ([3]; SC 10 mg kg-1): 101%; Tlast ([3]; SC 10 mg kg-1): 8 h; bioavailability ([3]; plasma, subcutaneous, SC 10 mg kg-1 vs IV 2 mg kg-1): 77%; AUC(0-inf) ([3]; plasma, IV 2 mg kg-1): 4240 ng·h/mL; AUC(0-t) ([3]; plasma, IV 2 mg kg-1): 4210 ng·h/mL; C0 ([3]; plasma, IV 2 mg kg-1): 6740 ng/mL; clearance ([3]; plasma, IV 2 mg kg-1): 8.11 mL/min/kg; half-life ([3]; plasma, IV 2 mg kg-1): 46.2 min; MRT inf ([3]; plasma, IV 2 mg kg-1): 54 min; MRT last ([3]; plasma, IV 2 mg kg-1): 54 min; Vd ([3]; plasma, IV 2 mg kg-1, read-out: Vdss): 0.43 L/kg; AUC(0-inf) ([3]; plasma, SC 10 mg kg-1): 16300 ng·h/mL; AUC(0-t) ([3]; plasma, SC 10 mg kg-1): 16100 ng·h/mL; Cmax ([3]; plasma, SC 10 mg kg-1): 6290 ng/mL; Tmax ([3]; plasma, SC 10 mg kg-1): 49.8 min; half-life ([3]; plasma, SC 10 mg kg-1): 66 min; MRT inf ([3]; plasma, SC 10 mg kg-1): 120 min; MRT last ([3]; plasma, SC 10 mg kg-1): 114 min; hemolysis at 3 h (Haemolysis assay; 100 µg mL-1): 1.4%; hemolysis at 3 h (Haemolysis assay; 1600 µg mL-1): 1.2%; Ac2Kaa concentration required to neutralise MIC activity [4]: 100 µg/mL; MIC [4]: ≤ 0.004 µg/mL; remaining at 1 h, 20 µM (in vitro): 87%; remaining at 3 h, 20 µM (in vitro): 87%; remaining at 6 h, 20 µM (in vitro): 83%; remaining at 24 h, 20 µM (in vitro): 93%; % compound remaining after incubation in 50% human plasma, 0h [5]: 100%
